The data set in a line: yeast display, Sf9 membrane polyspecificity reagent, FACS + sequencing; frameworks hold sequencing errors. In short, it runs like this:
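Nanobodies from a synthetic yeast display library (Saccharomyces cerevisiae BJ5465), induced 36–48 hours with galactose, were stained 1 hour at 4 °C with 10% biotinylated, detergent-solubilized Sf9 membrane reagent, enriched on streptavidin microbeads, then FACS-sorted. Anti-HA (expression) and streptavidin (reagent binding) fluorescence set low and high (top ~1%) gates. Polyreactivity labels come from the gate of origin. Genes were colony-PCR amplified, MiSeq 2 × 250 sequenced and filtered by CDR length.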
In the case of “QDQHVESGGGLVQAGGSLRLSCAASARIFVPYAMGWYRQAPGQERELVAAFSWRGGSTNYADSVKGRFTISRDNAKNTVYLQLNSLIPEDTAVYYCAAVPVRYRYSYGYYYWGQGTQVSVSS”, the “polyreactivity (PSR sort gate)” value is “high polyreactivity”.
For “QDQHVESGGGLVQAGGSLRLSCAASGITSKNYAMGWSRQAPGKERELVAVISGRGGSTYYADSVKGRFTITRDNAKNTVYLQMNCLKPEDTAVYYCAAYGNQRRGAYPYKYDYWGQGTQVTVSS” the value was “high polyreactivity”; for “QDQHVESGGGLVQAGGSLRLSCAASGLTFAVYTMGWYRPAAGKERELVAAITWDGGITYYADSVKGRFTISRDNAKNTVYLQMNSLKPEDTAVYYCAADSREVSTTAYYYWGQGTQVTLSS”, “low polyreactivity”; for “QDQHVESGGGLVQAGGSLRLSCAASGLTFHRYAMGWSRQAPGKERELVAAINYSGGRTYYADSVKGRFTISRDNAKNTVYLLMNSLKPEDTAVYYCAGYDYWGQGTQVTVSS”, “high polyreactivity”.
On to “QDQHVESGGGLVQAGGSLRLSCAASGRTFAGYAMGWYRQAPGKERELVATISGRGGSTSYADSVKGRFTISRDNAKNTVYLQMNSLIPEDTAVYYCAKASWYKYKYDYWGQGTQVTVSS”, for which the “polyreactivity (PSR sort gate)” value is “high polyreactivity”.
Take “QDQHVESGGGLVQAGGSLRLSCAASGRTFYQYAMGWYRQAPGKERELVAVINGGGSTNYADSVKGRFTISRDNAKNTVYLQMNSLKPEDTAVYYCNAGSVSDRQMDYWGQGTQVTVSS”: the “polyreactivity (PSR sort gate)” value is given as “low polyreactivity”.
On to “QDQHVESGGGLVQAGGSLRLSCAASGRTFYSYTMGWYRPPPGKERELVAAINRSGGRTYYADSVKGRFTISRDNAKNTVYLQRNSLKPEDTAVYYCNALEYYRFDYWGQCTQVTVSS”, for which the “polyreactivity (PSR sort gate)” value was “high polyreactivity”.
In the case of “QDQHVESGGGLVQAGGSLRLSCAASGSIFNYYAMGWYRQAPGKEREFVAAISRSGGSTYYADSEKGRFTISRDNAKNTVYLEMNSLKPEDTAVYYCNAYSYSEAGDDGDYWGQGTQVTVSS”, the “polyreactivity (PSR sort gate)” value was “low polyreactivity”.
As for “QDQHVESGGGLVQAGGSLRLSCAASGSTFRKYAMGRSRQAPGKERELVAAISWSGGRTYYADSVKGRFTISRDNAKKTFYLQLNSLKPEDTAVYYCAASIPGTRSDGYWGQGTQVTVSS”, the “polyreactivity (PSR sort gate)” value is reported as “high polyreactivity”.
Turning to “QDQHVESGGGLVQAGGSLRLSCAASGSTFTGYDMGRYRQAPGKERELVAAISWNGGSTYYADSVKGRFTISRDNAKNTVYLQMNSLKPEDTAVYYCAKVTLTHSRFRYYYWGQGTQVTVSS”, the “polyreactivity (PSR sort gate)” value is “high polyreactivity”.
For the sequence “QDQHVESGGGLVQAGGSLRLSCAASRRTIDLYAMGWYRQAPGKERELVAAITKGGGSTYYADSVKGRFTISRDNATNTVYLQMNSLKPEDTAVFYCAARKYKRIYRISSGIGYYWGQGTQVTVSS”, the “polyreactivity (PSR sort gate)” value is reported as “high polyreactivity”.
On to “QDQHVESGGGLVQAGGSLRLSCDASGFIFSYYTMGCYRQAPGKERELVAAIRSSGGSTYADSVKGRFTISRDNAKNTVYLQMTSLKPEDTAVYYCAAVQTWRWVYARDYWGQGTQVTVSS”, for which the “polyreactivity (PSR sort gate)” value was “high polyreactivity”.
For the sequence “QDQHVESGGGLVQARGSLRLSCAASGRIFANKAMGRYRQAPGKERELVAAISRSGVSTYYADSVKGRFTISRDNAKNTVYLQMNSLKPEDSAVYYCAARWRSGFTSGDDWGQGTQVTVSA”, the “polyreactivity (PSR sort gate)” value is recorded as “low polyreactivity”.
As for “QDQHVESGGGLVQARGTLRLSCAASGFTFYHYAMGWSRQAPGTERELVAGISHRGASTYYADSVKGRFTISRDNAKNTVYLQMNSLKPEDTAVYYCNAYRPYRNHALIGDGYWGQGTQVTVSS”, the “polyreactivity (PSR sort gate)” value is recorded as “high polyreactivity”.
Under “QDQHVESVGGLVQAGGGLPLSCAASGRTFTYNAMGWYRQPPGKERELVAAITSGGTTNYADSVKGRFTISRDNAKNTVYLQMNSLKQEDTAVYYCAARRVYYSYRRYYYWGQGTQVTVSS” stands “low polyreactivity”; under “QDQHVETGGGLVQAGGSLRLSCAASGSIFFLYMGWYRKAHGKETELVATISSGGSTNYADSVMGRFTISRDNAKHTVYLQMNSLKPVATAVYYFNARGSERLDTYSLYDYWGQGTQVTVSS”, “low polyreactivity”; under “QDQLEDSGGGLVQAGGSLRLSCAASGRTFTLYAMGWSRQAPGKERELVASISRSGGSTYYADSVKGRFTISRDNAKNTVYLQMNSVKPEDTAVDYCAARRFAWLFIYDYWGQGTQVTVSS”, “high polyreactivity”.
For the sequence “QDQLEESGGCLVQAGGSLRLSCAASGRIFYGYVMRWYRQAPGKERELVAAINQSGTSTYYADSVKGRFTISRDYAKNTVYLQMNSLKPEDTAVYYCAKDWAYRRHWVGFYYWGQGTQVTVSS”, the “polyreactivity (PSR sort gate)” value was “low polyreactivity”.
Take “QDQLEESGGGLVQAGGSLRLSCAASGRNFYGYVMGWYRQAPGKERELVAAISSGGSTYYADSVKGRFTISRDNAKNTVYLQMNSLKPEDTAVYYCNADWKSYRGPKFDYWGQGTQVTVSS”: the “polyreactivity (PSR sort gate)” value is on record as “low polyreactivity”.
“QDQLEESGGGLVQAGGSLRLSCAATGITFSSNAMGWYRQAPGKERELVAAISWSGGSTYYADSVKGRFTISRDYAKNTVYLQMNSLKPEDTAVYYCNASKHNPYGGDYWGQGTQVTVSS”: the “polyreactivity (PSR sort gate)” value was “high polyreactivity”.
Turning to “QDQLGDSGGGLVQAGGSLRLSCAASGFTFGKYAMGWYRQAPGKERELVAAISWSGASTYYADSVKGRFTISRDNAMNTVYLQMNSLKAEDTALYYCAKRDYSYPWFRDYYYWGQGTLVTVSS”, the “polyreactivity (PSR sort gate)” value is “low polyreactivity”.
For “QDQLGDSGGGLVQAGGSLRLSCAASGSTYSVYTMGWYRQAPGKERELVAGITSNAGSTYYADSVKGRFTISRDNAMNTVYLEMNRLKPEDTAVYYCNADRWVRTTYDYWGQGTQVTVSS”, the “polyreactivity (PSR sort gate)” value is reported as “high polyreactivity”.
On to “QDQLVDSGAGLLQAGGSLRLSCAASGFTFYGYAMGWYRQAPGKERELVASISWSGGTTYYADSVKGRFTISRDNAKNTVYLQMNSLKPEDTAVYYCNAVRYRYGVFPYYYWGQGTQVTESS”, for which the “polyreactivity (PSR sort gate)” value is listed as “high polyreactivity”.
Turning to “QDQLVDSGGGLVQAGGSLRLICAASGRIFHCYAMGWYRQAPGKERELVAAIRASGGRTYYADSVKGRFTISRDNAKNTVYVQMNSLKPEDPAVYYCGADSVKYGGDYWGQGTQVTVSS”, the “polyreactivity (PSR sort gate)” value was “high polyreactivity”.
As for “QDQLVDSGGGLVQAGGSLRLSCAASGFIFWYYAMGWYRQEPGKERELVAAITSGGNTNYADSVKGRFTISRDNAKNTFYLQMNSLKPEDTAVYYCATGRASGREHDSWGHGTQVTVSS”, the “polyreactivity (PSR sort gate)” value is on record as “low polyreactivity”.
For the sequence “QDQLVDSGGGLVQAGGSLRLSCAASGRTFESYAMGWYRQAPGKERELVAAISYSGGSTYYADSVKGRFTISRDNAKNTVYLQMNSLKPEDTAVYYCAVRWRYKYDYWGQGTQVTVSS”, the “polyreactivity (PSR sort gate)” value was “high polyreactivity”.
In the case of “QDQLVDSGGGLVQAGGSLRLSCAASGSTGTYMGWYRQAPGKERELVAAIDNICDNTYNADSVKGRFTISRDNAKNTVYLQMNSLIPEDSAVYYCAADYYVYYPWLFEYDYWGQGTQVTVSS”, the “polyreactivity (PSR sort gate)” value is reported as “low polyreactivity”.
As to “QDQLVDSGGGLVQAGGSLRLSCDASGIFDYYVMGWYRQAPGTERELVAAISKSVGSTYYADSVKGRFTISRDNAKNTVYLQMNSLKPEDTAVYYCAVENRYRFGYWGQGTQVTVSS”, the “polyreactivity (PSR sort gate)” value was “low polyreactivity”.
With “QDQLVDSGGGLVQAGGSLRLSSSASGLIFYKYAMGWYRQAPGKERELVAAISSSGGSTYYADSVKGRFTISRDTAKITVYLQMNSLKPDDTAVYYCAARTNRRGYNYWGQGTQVTVSS”, the “polyreactivity (PSR sort gate)” value was “high polyreactivity”.
As to “QDQLVEAGGGLVQAGGSLRLSCAASGRIFYPDAMVWYRQAPGKERELVAAIRRSGVDTYYADSVKVRFTISRDNAKNTVSLQRNSLKPEDTAVYYCAADPYWFFPHYDSWGQGTQVTVSS”, the “polyreactivity (PSR sort gate)” value was “low polyreactivity”.
In the case of “QDQLVESAAGLVQAGGSLRLSCAASGRTLYTNALGWYIQAPGKERELVAAISSDSSTKYADSVKGRFTISRDNAKNTVYLQMNSLKPEDTAVYYCARRGAFYYLYGHQYALYDYWGQGTQVTVSS”, the “polyreactivity (PSR sort gate)” value is given as “low polyreactivity”.
Under “QDQLVESAGGLVQAGGSLRLSCAASGRTFYFYTMGWYRQAPGKESELVATAITSGGSTNYADSVKGRFTISRDNAKNTVYLQMNSLKPEDTAVYYCAAVPTEFGNRLEYDYWGQGTQVTVSS” stands “low polyreactivity”; under “QDQLVESAGGLVQAGGSRRLSCAASGFTFYRNAMGCYRQAPGKERELVAAISITGGRTYYADSVKGRFTISRDNAKNTVYLQMNSLIPEDTAVYYCAKDRQRYGGDFDYWGQGTQLTVSS”, “high polyreactivity”; under “QDQLVESCGGLVPAGGSLRLSCPASGPIFTYYTMGSYRQAPGKERELVAAITVRGGRTYYADSVKGRFTISRDNEKNTVYLQMNSLKPEDTAVYYCAARGLVRSYDYWGQGTQVSVSS”, “high polyreactivity”.
Consider “QDQLVESDAGLVQAGGSLRLSCAASGRIFLGNAMGRSIQPPGNERELVAAITYSGRSTYYSDSVKGRLTISRDNAKNTLYLQMNSLKPEDTAVYYCAARQYWTTDLPFQRYYYWGPGTQVTVSS”, for which the “polyreactivity (PSR sort gate)” value is given as “low polyreactivity”.
For “QDQLVESGACLVQAGGRLRLSCAASGFTFYYNAMGWYRQAPGKEREFVAAISRSGGSTTYADSVKGRFTISRDNAMNTGFLEMNSLKPEDTAVYYCNARRYRCKSYDYWGQGTQVTVSS”, the “polyreactivity (PSR sort gate)” value is reported as “high polyreactivity”.
With “QDQLVESGGALVQAGRSLRLSCAASGIIYIYYAMGWYIQAPGKERELVAAISGSGDSTYYADSVKGRFTISRDNAKNTVYLQMNSLKPEDTAVYYCARRSPNPYSIYYYWGQGTQVTVSS”, the “polyreactivity (PSR sort gate)” value is “high polyreactivity”.
Take “QDQLVESGGCLVQAGGSLRLRCAASGITFDRYTMGWYRQAPGKERELVAAIRSGGGTYYADSVKGRFTISRDNAKNTVYLQMNSLKPEDTAVYYCAATRVSPSQYLRYYYWGQGTQVTVSS”: the “polyreactivity (PSR sort gate)” value is listed as “high polyreactivity”.
Under “QDQLVESGGCLVQAGGSLRLSCAASGSTFGYNVMGRYRQAPGKERELVAAISSSGGSTYYADSVKGRFSISRDNAKNTVYLQMNSLKPEDTAVYYCARSTYPYRYGYWGQGTQVTVSS” stands “high polyreactivity”; under “QDQLVESGGCLVQAGGSLRLSCAASGSTFPIYAMGWYRQEPGKERELVAPITWNGGRTYYADSVKGRFTISRDNAKNTVYLQMNSLKPEDTAVYYCNALYYHNLEGNYWGQGTQVTVSS”, “high polyreactivity”; under “QDQLVESGGCLVQAGLSLRLSCAASGSTFGPYAMGWYRQAPGKERELVADISGGSTNYADSVKGRFTISRDNAKNTVYLQLNSLKPEDTAFYYCATDDHVETVRRLYGDWGQGTQVTVSS”, “low polyreactivity”.
